Reference: patent US20220168440A1, “ANTIBODY-PYRROLOBENZODIAZEPINE DEPRIVATIVE CONJUGATE” (DAIICHI SANKYO COMPANY, LIMITED, priority 2019, published 2022)

How the values were obtained:
human CLDN3 = target: T1, human CLDN3 (human, UniProt O15551 1-220); assay: flow cytometry on transiently transfected 293T cells
T1 construct: whole, on cells
T1 sequence (looked up): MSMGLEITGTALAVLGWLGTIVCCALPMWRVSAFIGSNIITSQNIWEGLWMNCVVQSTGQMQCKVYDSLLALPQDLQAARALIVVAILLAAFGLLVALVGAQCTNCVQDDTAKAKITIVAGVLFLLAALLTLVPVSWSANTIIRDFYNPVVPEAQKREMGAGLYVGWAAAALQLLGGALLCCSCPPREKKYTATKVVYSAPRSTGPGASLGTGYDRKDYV
Method: (§1) Binding activity of the mouse anti-CLDN6 antibodies produced in Example 6 to human CLDN6 and its family molecules, CLDN3, CLDN4, and CLDN9, was evaluated by using a flow cytometry method. Human CLDN3/pCMV6-Entry, human CLDN4/pCMV6-Entry, human CLDN6/pCMV-Entry, human CLDN9/pCMV6-Entry, or pCMV6-Entry purchased from OriGene Technologies, Inc. was transiently transferred into 293T cells (Thermo Fisher Scientific, HCL4517) by using Lipofectamine 2000 (Thermo Fisher Scientific), and the cells were cultured under conditions of 37° C. and 5% CO₂ overnight, and then a cell suspension was prepared. […] The cells were washed twice with Dulbecco's phosphate buffered saline (Sigma-Aldrich Co. LLC) containing 5% fetal bovine serum (Hyclone) (hereinafter, referred to as 5% FBS-containing PBS), and FLUORESCEIN-CONJUGATED GOAT IGG FRACTION TO MOUSE IGG (WHOLE MOLECULE) (MP Biomedicals, Inc.) 500-fold diluted with 5% FBS-containing PBS was then added thereto, and the cells were suspended and left to stand at 4° C. for 1 hour. After washing twice with 5% FBS-containing PBS, detection was carried out by using a flow cytometer (FC500; Beckman Coulter, Inc.). Data analysis was carried out by using FlowJo (Tree Star, Inc.). […] In each graph in FIG. 40, the ordinate represents FITC fluorescence intensity indicating the amount of the binding antibody and the abscissa represents antibody concentrations.
(§2) The binding activity of the humanized anti-CLDN6 antibody produced in Example 10 to human CLDN6 and its family molecules, CLDN3, CLDN4, and CLDN9, was evaluated by using a flow cytometry method.

human CLDN4 = target: T2, human CLDN4 (human, UniProt O14493 1-209); assay: as above
T2 construct: whole, on cells
T2 sequence (looked up): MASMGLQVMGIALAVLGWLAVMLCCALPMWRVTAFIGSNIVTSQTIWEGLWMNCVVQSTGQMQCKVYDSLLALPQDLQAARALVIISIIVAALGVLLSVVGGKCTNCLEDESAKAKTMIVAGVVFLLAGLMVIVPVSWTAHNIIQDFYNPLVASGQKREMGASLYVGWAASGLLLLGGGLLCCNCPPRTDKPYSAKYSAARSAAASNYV
Method: as §1, §2

human CLDN6 = target: T3, human CLDN6 (human, UniProt P56747 1-220); assay: flow cytometry (MFI) on transiently transfected 293T cells
T3 construct: Four-transmembrane protein, NP_067018; It was also expressed on CHO-K1 cells by cDNA transfection; In the immunoprecipitation it was the endogenous protein from NTERA-2 cell lysate; also called hCLDN6; claudin-6
T3 sequence: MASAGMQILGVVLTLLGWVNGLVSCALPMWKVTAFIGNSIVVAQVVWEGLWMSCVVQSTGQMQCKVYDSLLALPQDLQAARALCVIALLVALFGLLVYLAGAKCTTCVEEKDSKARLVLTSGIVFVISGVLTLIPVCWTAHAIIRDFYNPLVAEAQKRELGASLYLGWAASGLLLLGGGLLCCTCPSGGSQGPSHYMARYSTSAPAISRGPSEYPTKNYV
Method: (§3) The binding activity of the humanized anti-CLDN6 antibody produced in Example 10 to human CLDN6 and its family molecules, CLDN3, CLDN4, and CLDN9, was evaluated by using a flow cytometry method. […] The cells were washed with Dulbecco's phosphate buffered saline (Sigma-Aldrich Co. LLC) containing 5% fetal bovine serum (Hyclone) (hereinafter, referred to as 5% FBS-containing PBS), and FITC AffiniPureF (ab′)2 Fragment Goat Anti-Human IgG (H+L) (Jackson ImmunoResearch Laboratories Inc.) 150-fold diluted with 5% FBS-containing PBS was then added thereto, and the cells were suspended and left to stand at 4° C. for 30 minutes. After washing with 5% FBS-containing PBS, detection was carried out by using a flow cytometer (FC500; Beckman Coulter, Inc.). Data analysis was carried out by using FlowJo (Tree Star, Inc.), and mean fluorescence intensity (MFI) of FITC, which indicates the amount of the binding antibody, was calculated. […] In each graph in FIG. 42, the abscissa represents antibody concentrations and the ordinate represents MFI.

human CLDN9 = target: T4, human CLDN9 (human, UniProt O95484 1-217); assay: as above
T4 construct: NP_066192; It was expressed on 293T cells transiently transfected with human CLDN9/pCMV6-Entry (OriGene); also called claudin-9
T4 sequence: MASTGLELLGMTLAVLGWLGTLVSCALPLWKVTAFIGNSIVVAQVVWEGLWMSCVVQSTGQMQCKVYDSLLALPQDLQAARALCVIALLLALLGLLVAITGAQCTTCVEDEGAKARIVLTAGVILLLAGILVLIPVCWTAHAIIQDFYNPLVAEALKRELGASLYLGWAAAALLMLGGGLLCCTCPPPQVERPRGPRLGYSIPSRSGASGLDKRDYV
Method: as §3

human claudin-6 = target: T5, human claudin-6 (Homo sapiens, UniProt P56747); assay: FACS analysis of 218B1/218C7 antibodies on human claudin-6-expressing CHO-K1 cells; type: binding; details: forced expression by cDNA transfection
T5 construct: expressed in transfected cells; host or cells: CHO-K1 cells
T5 sequence (P56747 1-220): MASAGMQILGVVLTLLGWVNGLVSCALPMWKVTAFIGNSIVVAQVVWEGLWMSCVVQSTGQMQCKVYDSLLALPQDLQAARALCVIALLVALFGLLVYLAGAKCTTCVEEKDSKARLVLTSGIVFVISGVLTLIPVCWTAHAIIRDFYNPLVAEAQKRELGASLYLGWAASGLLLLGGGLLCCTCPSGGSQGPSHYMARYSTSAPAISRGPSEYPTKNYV
Method: Since the antigen for the 218B1 antibody and 218C7 antibody was estimated to be claudin-6 from the mass spectrometry, forced expression analysis by cDNA transfection was carried out.

NIH:OVCAR-3 = assay: Internalization activity by Mab-ZAP (saporin-conjugated anti-mouse IgG), cell survival; type: cell-based; details: human CLDN6-positive ovarian cancer cell line NIH:OVCAR-3; antibody 1 nM, Mab-ZAP 0.5 nM; 5 days
Method: (§4) Internalization activity of the mouse anti-CLDN6 antibodies B1 and C7 was evaluated by using the anti-mouse IgG reagent, to which a toxin that inhibits protein synthesis (saporin) had been conjugated, Mab-ZAP (Advanced Targeting Systems). In this evaluation, Mab-ZAP is incorporated into cells in a manner depending on the internalization activity of a mouse anti-CLDN6 antibody, and saporin, which inhibits protein synthesis, is released in the cells to suppress cell growth.
(§5) JEG-3(ATCC HTB-36), a human choriocarcinoma cell line of human CLDN6-positive cells, NIH:OVCAR-3 (ATCC HTB-161), a human ovarian cancer cell line of human CLDN6-positive cells, or BxPC-3 (ATCC CRL-1687), a human pancreatic cancer cell line of human CLDN6-negative cells, was seeded in a 96-well cell culture microplate at 2×10^3 cells/well, and cultured under conditions of 37° C. and 5% CO2 overnight. On the next day, a mixed solution obtained by mixing each mouse anti-CLDN6 antibody or mouse IgG1 antibody (R&D Systems, Inc.) to a final concentration of 1 nM, with Mab-ZAP (final concentration: 0.5 nM) or AffiniPure Goat Anti-Mouse IgG, Fcγ Fragment Specific (Jackson ImmunoResearch Laboratories Inc.) (final concentration: 0.5 nM), without conjugated toxin, was added, and the cells were cultured under conditions of 37° C. and 5% CO2 for 5 days. The number of surviving cells was determined through quantification of ATP activity by using CellTiter-Glo Luminescent Cell Viability Assay (Promega Corporation).

JEG-3 = assay: as above; type: cell-based; details: human CLDN6-positive choriocarcinoma cell line JEG-3; antibody 1 nM, Mab-ZAP 0.5 nM; 5 days
Method: as §4, §5

BxPC-3 = assay: as above; type: cell-based; details: human CLDN6-negative pancreatic cancer cell line BxPC-3; antibody 1 nM, Mab-ZAP 0.5 nM; 5 days
Method: as §4, §5

B1: humanized anti-CLDN6 antibody H1L3 (antibody, human IgG1, kappa, L234A L235A, V domains shown)
VH: QVQLVQSGAEVKKPGASVKVSCKASGYTFTEYTMHWVRQAPGQGLEWMGGVNPNSGDTSYAQKFQGRVTITADTSTSTAYMELSSLRSEDTAVYYCARPGGYDVGYYAMDYWGQGTLVTVSS
VL: DIQMTQSPSSLSASVGDRVTITCRASQDINNYLNWYQQKPGGAVKLLIYFTSRLHSGVPSRFSGSGSGTDYTLTISSLQPEDFATYYCQQGYPLPWTFGGGTKVEIKR
notes: hH1 + hL3, with human IgG1 LALA constant region and human kappa chain; also called H1L3 antibody
binding result (human CLDN3): no binding (tested: 100 nM)
binding result (human CLDN4): no binding (tested: 100 nM)
binding result (human CLDN6): binds
binding result (human CLDN9): binds

B2: humanized anti-CLDN6 antibody H2L2 (antibody, human IgG1, kappa, L234A L235A, V domains shown)
VH: EVQLVQSGAEVKKPGASVKVSCKTSGYTFTEYTMHWVRQAPGKSLEWMGGVNPNSGDTSYAQKFQGRVTITADTSTSTAYMELSSLRSEDTAVYYCARPGGYDVGYYAMDYWGQGTLVTVSS
VL: DIQMTQSPSSLSASVGDRVTITCRASQDINNYLNWYQQKPGKAVKLLIYFTSRLHSGVPSRFSGSGSGTHYTLTISSLQPEDFATYYCQQGYPLPWTFGQGTKVEIKR
notes: hH2 + hL2, with human IgG1 LALA constant region and human kappa chain; also called H2L2 antibody
binding result (human CLDN3): no binding (tested: 100 nM)
binding result (human CLDN4): no binding (tested: 100 nM)
binding result (human CLDN6): binds
binding result (human CLDN9): binds

B3: humanized anti-CLDN6 antibody H1L1 (antibody, human IgG1, kappa, L234A L235A, V domains shown)
VH: QVQLVQSGAEVKKPGASVKVSCKASGYTFTEYTMHWVRQAPGQGLEWMGGVNPNSGDTSYAQKFQGRVTITADTSTSTAYMELSSLRSEDTAVYYCARPGGYDVGYYAMDYWGQGTLVTVSS
VL: DIQMTQSPSSLSASVGDRVTITCRASQDINNYLNWYQQKPGKAPKLLIYFTSRLHSGVPSRFSGSGSGTDYTLTISSLQPEDFATYYCQQGYPLPWTFGQGTKVEIKR
notes: hH1 + hL1, with human IgG1 LALA constant region and human kappa chain; also called H1L1 antibody
binding result (human CLDN3): no binding (tested: 100 nM)
binding result (human CLDN4): no binding (tested: 100 nM)
binding result (human CLDN6): binds
binding result (human CLDN9): binds

B4: humanized anti-CLDN6 antibody H2L4 (antibody, human IgG1, kappa, L234A L235A, V domains shown)
VH: EVQLVQSGAEVKKPGASVKVSCKTSGYTFTEYTMHWVRQAPGKSLEWMGGVNPNSGDTSYAQKFQGRVTITADTSTSTAYMELSSLRSEDTAVYYCARPGGYDVGYYAMDYWGQGTLVTVSS
VL: DIQMTQSPSSLSASVGDRVTITCRASQDINNYLNWYQQKPGGAVKLLIYFTSRLHSGVPSRFSGSGSGTDYTLTISSLQPEDFATYYCQQGNTLPWTFGGGTKVEIKR
notes: also called H2L4 antibody
binding result (human CLDN3): no binding (tested: 100 nM)
binding result (human CLDN4): no binding (tested: 100 nM)
binding result (human CLDN6): binds
binding result (human CLDN9): binds

B5: humanized anti-CLDN6 antibody H3L3 (antibody, human IgG1, kappa, L234A L235A, V domains shown)
VH: EVQLVQSGAEVKKPGASVKVSCKTSGYTFTEYTMHWVRQAPGQGLEWMGGVNPNSGDTSYAQKFQGRVTLTVDKSTSTAYMELSSLRSEDTAVYYCARPGGYDVGYYAMDYWGQGTLVTVSS
VL: DIQMTQSPSSLSASVGDRVTITCRASQDINNYLNWYQQKPGGAVKLLIYFTSRLHSGVPSRFSGSGSGTDYTLTISSLQPEDFATYYCQQGYPLPWTFGGGTKVEIKR
notes: hH3 + hL3, with human IgG1 LALA constant region and human kappa chain; also called H3L3 antibody
binding result (human CLDN3): no binding (tested: 100 nM)
binding result (human CLDN4): no binding (tested: 100 nM)
binding result (human CLDN6): binds
binding result (human CLDN9): binds

B6: B1: mouse anti-CLDN6 antibody; heavy/light chain variable regions SEQ ID NO: 21 and 19 (antibody, listed as Mus musculus, V domains shown)
VH: EVQLQQSGPELVKPGASVKISCKTSGYTFTEYTMHWVQQSHGKSLEWIGGVNPNSGDTSYNQKFKGKATLTVDKSSSTAYMELRSLTSEDSAVYYCARPGGYDVGYYAMDYWGQGTSVTVSS
VL: DIQMTQTASSLSASLGDRVTISCRASQDINNYLNWYQQKPDGTVKLLIYFTSRLHSGVPSRFSGSGSGTHYSLTITNLEQEDIATYFCQQGYPLPWTFGGGTKLEIK
modifications: amino acid sequence of variable region of B1 antibody heavy chain; amino acid sequence of variable region of B1 antibody light chain
FACS reaction for human claudin-6-expressing CHO-K1 cells (human claudin-6): strong positive reaction
cell growth-suppressing effect (relative survival rate) with Mab-ZAP (NIH:OVCAR-3): cell growth-suppressing effect
cell growth-suppressing effect (relative survival rate) with Mab-ZAP (JEG-3): cell growth-suppressing effect
cell growth-suppressing effect (relative survival rate) with Mab-ZAP (BxPC-3): no cell growth-suppressing effect
